Test results published in the RNAGym collection of RNA variant scans (doi:10.1021/acssynbio.7b00057).

B1: Pistol ribozyme (parent)
chain: GGGUCGUUGUUCCAUAAUCGCGUGGAUAUGGCACGCAAGUUUCUACCGGGCACCGUAAAUGUCCGACUGGAGCCGUUCGGGCGGCUAUAAACAGACCUCAGGCCCGAAGCGUGGCGGCACCUGCCGCCGGUGGUAAAAAAGAUCGGAAGAGCACACGUCU

Variants of: B1
Assay: aptazyme ON/OFF ratio, guanine; higher = stronger switching; co-transcriptional cleavage with and without guanine

Going from GGGUCGAUGAUGCAUAAUCGCGUGGAUAUGGCACGCAAGUUUCUACCGGGCACCGUAAAUGUCCGACUGGAGCCGUUCGGGCGGCUAUAAACAGACCUCAGGCCCGAAGCGUGGCGGCACCUGCCGCCGGUGGUAAAAAAGAUCGGAAGAGCACACGUCU to GGGUCGAUGAUUCAUAAUCGCGUGGAUAUGGCACGCAAGUUUCUACCGGGCACCGUAAAUGUCCGACUGGAGCCGUUCGGGCGGCUAUAAACAGACCUCAGGCCCGAAGCGUGGCGGCACCUGCCGCCGGUGGUAAAAAAGAUCGGAAGAGCACACGUCU, the “aptazyme ON/OFF ratio” value falls from 1.22 to 1.1.

Compared with GGGUCGAGGUCUAAUAAUCGCGUGGAUAUGGCACGCAAGUUUCUACCGGGCACCGUAAAUGUCCGACUGGAGCCGUUCGGGCGGCUAUAAACAGACCUCAGGCCCGAAGCGUGGCGGCACCUGCCGCCGGUGGUAAAAAAGAUCGGAAGAGCACACGUCU, GGGUCGAGGUCUUAUAAUCGCGUGGAUAUGGCACGCAAGUUUCUACCGGGCACCGUAAAUGUCCGACUGGAGCCGUUCGGGCGGCUAUAAACAGACCUCAGGCCCGAAGCGUGGCGGCACCUGCCGCCGGUGGUAAAAAAGAUCGGAAGAGCACACGUCU is lower in “aptazyme ON/OFF ratio” value: 1.43 for the first, 1.36 for the second.

First: GGGUCGAGGUCUGAUAAUCGCGUGGAUAUGGCACGCAAGUUUCUACCGGGCACCGUAAAUGUCCGACUGGAGCCGUUCGGGCGGCUAUAAACAGACCUCAGGCCCGAAGCGUGGCGGCACCUGCCGCCGGUGGUAAAAAAGAUCGGAAGAGCACACGUCU
Second: GGGUCGAGGUCCUAUAAUCGCGUGGAUAUGGCACGCAAGUUUCUACCGGGCACCGUAAAUGUCCGACUGGAGCCGUUCGGGCGGCUAUAAACAGACCUCAGGCCCGAAGCGUGGCGGCACCUGCCGCCGGUGGUAAAAAAGAUCGGAAGAGCACACGUCU
The “aptazyme ON/OFF ratio” value of the first is lower: 1.03 for the first, 1.11 for the second.

Going from GGGUCGAGGUCCGAUAAUCGCGUGGAUAUGGCACGCAAGUUUCUACCGGGCACCGUAAAUGUCCGACUGGAGCCGUUCGGGCGGCUAUAAACAGACCUCAGGCCCGAAGCGUGGCGGCACCUGCCGCCGGUGGUAAAAAAGAUCGGAAGAGCACACGUCU to GGGUCGAGGUCCAAUAAUCGCGUGGAUAUGGCACGCAAGUUUCUACCGGGCACCGUAAAUGUCCGACUGGAGCCGUUCGGGCGGCUAUAAACAGACCUCAGGCCCGAAGCGUGGCGGCACCUGCCGCCGGUGGUAAAAAAGAUCGGAAGAGCACACGUCU, the “aptazyme ON/OFF ratio” value rises from 1.35 to 1.51.

Compared with GGGUCGAGGUGUAAUAAUCGCGUGGAUAUGGCACGCAAGUUUCUACCGGGCACCGUAAAUGUCCGACUGGAGCCGUUCGGGCGGCUAUAAACAGACCUCAGGCCCGAAGCGUGGCGGCACCUGCCGCCGGUGGUAAAAAAGAUCGGAAGAGCACACGUCU, GGGUCGAGGUGUGAUAAUCGCGUGGAUAUGGCACGCAAGUUUCUACCGGGCACCGUAAAUGUCCGACUGGAGCCGUUCGGGCGGCUAUAAACAGACCUCAGGCCCGAAGCGUGGCGGCACCUGCCGCCGGUGGUAAAAAAGAUCGGAAGAGCACACGUCU is lower in “aptazyme ON/OFF ratio” value: 1.63 for the first, 1.29 for the second.

Going from GGGUCGAGGUGUUAUAAUCGCGUGGAUAUGGCACGCAAGUUUCUACCGGGCACCGUAAAUGUCCGACUGGAGCCGUUCGGGCGGCUAUAAACAGACCUCAGGCCCGAAGCGUGGCGGCACCUGCCGCCGGUGGUAAAAAAGAUCGGAAGAGCACACGUCU to GGGUCGAUGAUUAAUAAUCGCGUGGAUAUGGCACGCAAGUUUCUACCGGGCACCGUAAAUGUCCGACUGGAGCCGUUCGGGCGGCUAUAAACAGACCUCAGGCCCGAAGCGUGGCGGCACCUGCCGCCGGUGGUAAAAAAGAUCGGAAGAGCACACGUCU, the “aptazyme ON/OFF ratio” value falls from 1.22 to 1.18.

Going from GGGUCGAGGUGAUAUAAUCGCGUGGAUAUGGCACGCAAGUUUCUACCGGGCACCGUAAAUGUCCGACUGGAGCCGUUCGGGCGGCUAUAAACAGACCUCAGGCCCGAAGCGUGGCGGCACCUGCCGCCGGUGGUAAAAAAGAUCGGAAGAGCACACGUCU to GGGUCGAGGUGAGAUAAUCGCGUGGAUAUGGCACGCAAGUUUCUACCGGGCACCGUAAAUGUCCGACUGGAGCCGUUCGGGCGGCUAUAAACAGACCUCAGGCCCGAAGCGUGGCGGCACCUGCCGCCGGUGGUAAAAAAGAUCGGAAGAGCACACGUCU, the “aptazyme ON/OFF ratio” value rises from 1.21 to 1.33.

Compared with GGGUCGAGGUGAAAUAAUCGCGUGGAUAUGGCACGCAAGUUUCUACCGGGCACCGUAAAUGUCCGACUGGAGCCGUUCGGGCGGCUAUAAACAGACCUCAGGCCCGAAGCGUGGCGGCACCUGCCGCCGGUGGUAAAAAAGAUCGGAAGAGCACACGUCU, GGGUCGAUGAUGAAUAAUCGCGUGGAUAUGGCACGCAAGUUUCUACCGGGCACCGUAAAUGUCCGACUGGAGCCGUUCGGGCGGCUAUAAACAGACCUCAGGCCCGAAGCGUGGCGGCACCUGCCGCCGGUGGUAAAAAAGAUCGGAAGAGCACACGUCU is higher in “aptazyme ON/OFF ratio” value: 1.18 for the first, 1.31 for the second.

First: GGGUCGAUGAUGGAUAAUCGCGUGGAUAUGGCACGCAAGUUUCUACCGGGCACCGUAAAUGUCCGACUGGAGCCGUUCGGGCGGCUAUAAACAGACCUCAGGCCCGAAGCGUGGCGGCACCUGCCGCCGGUGGUAAAAAAGAUCGGAAGAGCACACGUCU
Second: GGGUCGAUGAUGUAUAAUCGCGUGGAUAUGGCACGCAAGUUUCUACCGGGCACCGUAAAUGUCCGACUGGAGCCGUUCGGGCGGCUAUAAACAGACCUCAGGCCCGAAGCGUGGCGGCACCUGCCGCCGGUGGUAAAAAAGAUCGGAAGAGCACACGUCU
The “aptazyme ON/OFF ratio” value of the first is lower: 1.25 for the first, 1.27 for the second.
